Data: publication doi:10.1101/258020 (bioRxiv, 2018)

Experiments:
[1] = biological target: T1, TMR-phalloidin-labelled biotinylated actin filaments (Cytoskeleton) (UniProt P68135 1-377, biotin (~1 biotin per monomer)); assay: optical trap
[2] = biological target: T1, TMR-phalloidin-labelled biotinylated …; assay: optical trap; remark: listed apart in the source

B1: human β-cardiac myosin subfragment-1 (short S1, sS1 (complex)
chain 1: MGDSEMAVFGAAAPYLRKSEKERLEAQTRPFDLKKDVFVPDDKQEFVKAKIVSREGGKVTAETEYGKTVTVKEDQVMQQNPPKFDKIEDMAMLTFLHEPAVLYNLKDRYGSWMIYTYSGLFCVTVNPYKWLPVYTPEVVAAYRGKKRSEAPPHIFSISDNAYQYMLTDRENQSILITGESGAGKTVNTKRVIQYFAVIAAIGDRSKKDQSPGKGTLEDQIIQANPALEAFGNAKTVRNDNSSRFGKFIRIHFGATGKLASADIETYLLEKSRVIFQLKAERDYHIFYQILSNKKPELLDMLLITNNPYDYAFISQGETTVASIDDAEELMATDNAFDVLGFTSEEKNSMYKLTGAIMHFGNMKFKLKQREEQAEPDGTEEADKSAYLMGLNSADLLKGLCHPRVKVGNEYVTKGQNVQQVIYATGALAKAVYERMFNWMVTRINATLETKQPRQYFIGVLDIAGFEIFDFNSFEQLCINFTNEKLQQFFNHHMFVLEQEEYKKEGIEWTFIDFGMDLQACIDLIEKPMGIMSILEEECMFPKATDMTFKAKLFDNHLGKSANFQKPRNIKGKPEAHFSLIHYAGIVDYNIIGWLQKNKDPLNETVVGLYQKSSLKLLSTLFANYAGADAPIEKGKGKAKKGSSFQTVSALHRENLNKLMTNLRSTHPHFVRCIIPNETKSPGVMDNPLVMHQLRCNGVLEGIRICRKGFPNRILYGDFRQRYRILNPAAIPEGQFIDSRKGAEKLLSSLDIDHNQYKFGHTKVFFKAGLLGLLEEMRDERLSRIITRIQAQSRGVLARMEYKKLLERR
chain 2: not shown
[1]
  k0 (detachment rate from actin at zero load) with F3345: 36 s⁻¹

B2: human β-cardiac myosin sS1-eGFP (MYH7 1-808) A223T with essential light chain (complex)
chain 1: MGDSEMAVFGAAAPYLRKSEKERLEAQTRPFDLKKDVFVPDDKQEFVKAKIVSREGGKVTAETEYGKTVTVKEDQVMQQNPPKFDKIEDMAMLTFLHEPAVLYNLKDRYGSWMIYTYSGLFCVTVNPYKWLPVYTPEVVAAYRGKKRSEAPPHIFSISDNAYQYMLTDRENQSILITGESGAGKTVNTKRVIQYFAVIAAIGDRSKKDQSPGKGTLEDQIIQTNPALEAFGNAKTVRNDNSSRFGKFIRIHFGATGKLASADIETYLLEKSRVIFQLKAERDYHIFYQILSNKKPELLDMLLITNNPYDYAFISQGETTVASIDDAEELMATDNAFDVLGFTSEEKNSMYKLTGAIMHFGNMKFKLKQREEQAEPDGTEEADKSAYLMGLNSADLLKGLCHPRVKVGNEYVTKGQNVQQVIYATGALAKAVYERMFNWMVTRINATLETKQPRQYFIGVLDIAGFEIFDFNSFEQLCINFTNEKLQQFFNHHMFVLEQEEYKKEGIEWTFIDFGMDLQACIDLIEKPMGIMSILEEECMFPKATDMTFKAKLFDNHLGKSANFQKPRNIKGKPEAHFSLIHYAGIVDYNIIGWLQKNKDPLNETVVGLYQKSSLKLLSTLFANYAGADAPIEKGKGKAKKGSSFQTVSALHRENLNKLMTNLRSTHPHFVRCIIPNETKSPGVMDNPLVMHQLRCNGVLEGIRICRKGFPNRILYGDFRQRYRILNPAAIPEGQFIDSRKGAEKLLSSLDIDHNQYKFGHTKVFFKAGLLGLLEEMRDERLSRIITRIQAQSRGVLARMEYKKLLERR
chain 2: not shown
[2]
  k0 (detachment rate from actin at zero load): 104 s⁻¹

B3: human β-cardiac myosin sS1-eGFP (MYH7 1-808) D239N with essential light chain (complex)
chain 1: MGDSEMAVFGAAAPYLRKSEKERLEAQTRPFDLKKDVFVPDDKQEFVKAKIVSREGGKVTAETEYGKTVTVKEDQVMQQNPPKFDKIEDMAMLTFLHEPAVLYNLKDRYGSWMIYTYSGLFCVTVNPYKWLPVYTPEVVAAYRGKKRSEAPPHIFSISDNAYQYMLTDRENQSILITGESGAGKTVNTKRVIQYFAVIAAIGDRSKKDQSPGKGTLEDQIIQANPALEAFGNAKTVRNNNSSRFGKFIRIHFGATGKLASADIETYLLEKSRVIFQLKAERDYHIFYQILSNKKPELLDMLLITNNPYDYAFISQGETTVASIDDAEELMATDNAFDVLGFTSEEKNSMYKLTGAIMHFGNMKFKLKQREEQAEPDGTEEADKSAYLMGLNSADLLKGLCHPRVKVGNEYVTKGQNVQQVIYATGALAKAVYERMFNWMVTRINATLETKQPRQYFIGVLDIAGFEIFDFNSFEQLCINFTNEKLQQFFNHHMFVLEQEEYKKEGIEWTFIDFGMDLQACIDLIEKPMGIMSILEEECMFPKATDMTFKAKLFDNHLGKSANFQKPRNIKGKPEAHFSLIHYAGIVDYNIIGWLQKNKDPLNETVVGLYQKSSLKLLSTLFANYAGADAPIEKGKGKAKKGSSFQTVSALHRENLNKLMTNLRSTHPHFVRCIIPNETKSPGVMDNPLVMHQLRCNGVLEGIRICRKGFPNRILYGDFRQRYRILNPAAIPEGQFIDSRKGAEKLLSSLDIDHNQYKFGHTKVFFKAGLLGLLEEMRDERLSRIITRIQAQSRGVLARMEYKKLLERR
chain 2: not shown
[1]
  k0 (detachment rate from actin at zero load) with F3345: 24 s⁻¹
[2]
  k0 (detachment rate from actin at zero load): 140 s⁻¹

B4: human β-cardiac myosin sS1-eGFP (MYH7 1-808) H251N with essential light chain (complex)
chain 1: MGDSEMAVFGAAAPYLRKSEKERLEAQTRPFDLKKDVFVPDDKQEFVKAKIVSREGGKVTAETEYGKTVTVKEDQVMQQNPPKFDKIEDMAMLTFLHEPAVLYNLKDRYGSWMIYTYSGLFCVTVNPYKWLPVYTPEVVAAYRGKKRSEAPPHIFSISDNAYQYMLTDRENQSILITGESGAGKTVNTKRVIQYFAVIAAIGDRSKKDQSPGKGTLEDQIIQANPALEAFGNAKTVRNDNSSRFGKFIRINFGATGKLASADIETYLLEKSRVIFQLKAERDYHIFYQILSNKKPELLDMLLITNNPYDYAFISQGETTVASIDDAEELMATDNAFDVLGFTSEEKNSMYKLTGAIMHFGNMKFKLKQREEQAEPDGTEEADKSAYLMGLNSADLLKGLCHPRVKVGNEYVTKGQNVQQVIYATGALAKAVYERMFNWMVTRINATLETKQPRQYFIGVLDIAGFEIFDFNSFEQLCINFTNEKLQQFFNHHMFVLEQEEYKKEGIEWTFIDFGMDLQACIDLIEKPMGIMSILEEECMFPKATDMTFKAKLFDNHLGKSANFQKPRNIKGKPEAHFSLIHYAGIVDYNIIGWLQKNKDPLNETVVGLYQKSSLKLLSTLFANYAGADAPIEKGKGKAKKGSSFQTVSALHRENLNKLMTNLRSTHPHFVRCIIPNETKSPGVMDNPLVMHQLRCNGVLEGIRICRKGFPNRILYGDFRQRYRILNPAAIPEGQFIDSRKGAEKLLSSLDIDHNQYKFGHTKVFFKAGLLGLLEEMRDERLSRIITRIQAQSRGVLARMEYKKLLERR
chain 2: not shown
[1]
  k0 (detachment rate from actin at zero load) with F3345: 20 s⁻¹
[2]
  k0 (detachment rate from actin at zero load): 152 s⁻¹

B5: human β-cardiac myosin sS1-eGFP (MYH7 1-808) R237W with essential light chain (complex)
chain 1: MGDSEMAVFGAAAPYLRKSEKERLEAQTRPFDLKKDVFVPDDKQEFVKAKIVSREGGKVTAETEYGKTVTVKEDQVMQQNPPKFDKIEDMAMLTFLHEPAVLYNLKDRYGSWMIYTYSGLFCVTVNPYKWLPVYTPEVVAAYRGKKRSEAPPHIFSISDNAYQYMLTDRENQSILITGESGAGKTVNTKRVIQYFAVIAAIGDRSKKDQSPGKGTLEDQIIQANPALEAFGNAKTVWNDNSSRFGKFIRIHFGATGKLASADIETYLLEKSRVIFQLKAERDYHIFYQILSNKKPELLDMLLITNNPYDYAFISQGETTVASIDDAEELMATDNAFDVLGFTSEEKNSMYKLTGAIMHFGNMKFKLKQREEQAEPDGTEEADKSAYLMGLNSADLLKGLCHPRVKVGNEYVTKGQNVQQVIYATGALAKAVYERMFNWMVTRINATLETKQPRQYFIGVLDIAGFEIFDFNSFEQLCINFTNEKLQQFFNHHMFVLEQEEYKKEGIEWTFIDFGMDLQACIDLIEKPMGIMSILEEECMFPKATDMTFKAKLFDNHLGKSANFQKPRNIKGKPEAHFSLIHYAGIVDYNIIGWLQKNKDPLNETVVGLYQKSSLKLLSTLFANYAGADAPIEKGKGKAKKGSSFQTVSALHRENLNKLMTNLRSTHPHFVRCIIPNETKSPGVMDNPLVMHQLRCNGVLEGIRICRKGFPNRILYGDFRQRYRILNPAAIPEGQFIDSRKGAEKLLSSLDIDHNQYKFGHTKVFFKAGLLGLLEEMRDERLSRIITRIQAQSRGVLARMEYKKLLERR
chain 2: not shown
[2]
  k0 (detachment rate from actin at zero load): 155 s⁻¹

B6: human β-cardiac myosin sS1-eGFP (MYH7 1-808) S532P with essential light chain (complex)
chain 1: MGDSEMAVFGAAAPYLRKSEKERLEAQTRPFDLKKDVFVPDDKQEFVKAKIVSREGGKVTAETEYGKTVTVKEDQVMQQNPPKFDKIEDMAMLTFLHEPAVLYNLKDRYGSWMIYTYSGLFCVTVNPYKWLPVYTPEVVAAYRGKKRSEAPPHIFSISDNAYQYMLTDRENQSILITGESGAGKTVNTKRVIQYFAVIAAIGDRSKKDQSPGKGTLEDQIIQANPALEAFGNAKTVRNDNSSRFGKFIRIHFGATGKLASADIETYLLEKSRVIFQLKAERDYHIFYQILSNKKPELLDMLLITNNPYDYAFISQGETTVASIDDAEELMATDNAFDVLGFTSEEKNSMYKLTGAIMHFGNMKFKLKQREEQAEPDGTEEADKSAYLMGLNSADLLKGLCHPRVKVGNEYVTKGQNVQQVIYATGALAKAVYERMFNWMVTRINATLETKQPRQYFIGVLDIAGFEIFDFNSFEQLCINFTNEKLQQFFNHHMFVLEQEEYKKEGIEWTFIDFGMDLQACIDLIEKPMGIMPILEEECMFPKATDMTFKAKLFDNHLGKSANFQKPRNIKGKPEAHFSLIHYAGIVDYNIIGWLQKNKDPLNETVVGLYQKSSLKLLSTLFANYAGADAPIEKGKGKAKKGSSFQTVSALHRENLNKLMTNLRSTHPHFVRCIIPNETKSPGVMDNPLVMHQLRCNGVLEGIRICRKGFPNRILYGDFRQRYRILNPAAIPEGQFIDSRKGAEKLLSSLDIDHNQYKFGHTKVFFKAGLLGLLEEMRDERLSRIITRIQAQSRGVLARMEYKKLLERR
chain 2: not shown
[2]
  k0 (detachment rate from actin at zero load): 80 s⁻¹
